Experimental data published in US20150044169, “METHODS OF […] A […] FAMILY VIRAL INFECTION, COMPOSITIONS FOR […] A […] FAMILY VIRAL INFECTION, AND […] ASSAYS FOR […] COMPOSITIONS FOR […] A […] FAMILY VIRAL INFECTION” (The Board of Trustees of the Leland Stanford Junior …, published 2015).

Target: Gus (beta-glucuronidase) control (UniProt P05804 P05804:1-603)
Test: MITOMI Gus-his negative control
Conditions: tags: C-terminal 6xHis (Roche Gus-his vector); label: Cy3
Description: For each experiment, an image was taken after MITOMI and the final PBS wash. This was used to determine the concentration of surface bound protein (FITC channel) as well as surface bound target RNA (Cy3 channel). […] Data from multiple data points were averaged, and their standard deviations calculated. Results were then normalized to 1. Between 10-20 replicates were included for each probe tested. A control protein, Gus-his (Roche) was included in each experiment and subjected to the same analysis. When present, detected signal with Gus-his was used for background subtraction.
A microarray of Cy3-labeled target RNA sequences was used to program a microfluidic device, and binding of bodiby-labeled proteins expressed on the device to the RNA sequences was assayed. Results represent the ratio of bound RNA (median Cy3 signal) to expressed protein (median bodipy signal). Normalized mean values for 10-20 replicates measured in two independent experiments are shown. Error bars represent standard deviation. The grey bars represent binding of HuR-his and the clear bars that of Gus-his, used as a negative control.

Sequence of Gus (beta-glucuronidase) control (P05804 whole entry, one chain of several): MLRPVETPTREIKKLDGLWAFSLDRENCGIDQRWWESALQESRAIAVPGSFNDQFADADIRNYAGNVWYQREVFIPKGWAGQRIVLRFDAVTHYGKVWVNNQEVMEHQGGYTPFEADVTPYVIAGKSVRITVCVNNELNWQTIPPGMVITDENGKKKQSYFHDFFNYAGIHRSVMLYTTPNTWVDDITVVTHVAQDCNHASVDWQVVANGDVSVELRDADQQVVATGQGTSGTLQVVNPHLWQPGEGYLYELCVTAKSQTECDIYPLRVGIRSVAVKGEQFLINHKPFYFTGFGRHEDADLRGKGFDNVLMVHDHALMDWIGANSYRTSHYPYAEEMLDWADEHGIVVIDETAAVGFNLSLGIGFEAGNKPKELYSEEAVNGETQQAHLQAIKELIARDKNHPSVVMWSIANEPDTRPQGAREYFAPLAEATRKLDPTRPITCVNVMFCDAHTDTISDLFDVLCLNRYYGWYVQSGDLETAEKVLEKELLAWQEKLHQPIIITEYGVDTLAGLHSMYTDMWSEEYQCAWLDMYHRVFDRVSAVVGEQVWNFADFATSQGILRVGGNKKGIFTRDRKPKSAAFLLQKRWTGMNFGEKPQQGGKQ

AUUUAUUUAUUUAUUUA (ssRNA) [4A]
binding result: no binding
